Measurements published in the Immune Epitope Database (IEDB).

What was measured:
Conditions in all cases: source organism: Hepatitis B virus
HLA-B*51:01 [1] = assay: IEDB peptide-MHC binding, purified MHC/competitive/radioactivity; filed as Kd, often an IC50 or EC50 that approximates it; ≥ and ≤ were set here for values at or beyond the usual limits of such assays
HLA-A*02:06 = assay: as above
HLA-A*03:01 [2] = assay: as above
HLA-A*68:01 [3] = assay: as above
HLA-A*03:01 [4] = assay: IEDB peptide-MHC binding, purified MHC/competitive/radioactivity; ≥ and ≤ were set here for values at or beyond the usual limits of such assays
HLA-A*31:01 = assay: IEDB peptide-MHC binding, purified MHC/competitive/radioactivity; filed as Kd, often an IC50 or EC50 that approximates it; ≥ and ≤ were set here for values at or beyond the usual limits of such assays
HLA-A*33:01 = assay: as above
HLA-B*35:01 = assay: IEDB peptide-MHC binding, purified MHC/competitive/radioactivity; ≥ and ≤ were set here for values at or beyond the usual limits of such assays
HLA-B*51:01 [5] = assay: as above
HLA-A*68:01 [6] = assay: as above
HLA-A*02:03 = assay: IEDB peptide-MHC binding, purified MHC/competitive/radioactivity; filed as Kd, often an IC50 or EC50 that approximates it; ≥ and ≤ were set here for values at or beyond the usual limits of such assays
HLA-B*53:01 = assay: IEDB peptide-MHC binding, purified MHC/competitive/radioactivity; ≥ and ≤ were set here for values at or beyond the usual limits of such assays

| Sequence | Kd (HLA-A*68:01 [3]) [µM] | Kd (HLA-A*31:01) [µM] | Kd (HLA-A*33:01) [µM] | further results |
| --- | --- | --- | --- | --- |
| DPSRGRLGL |  |  |  | Kd (HLA-B*51:01 [1]): ≥ 25 µM |
| GLLGWSPQA |  |  |  | Kd (HLA-A*02:06): 1.32 µM |
| GTDNSVVLSR | ≥ 20 |  |  | Kd (HLA-A*03:01 [2]): ≥ 10 µM |
| GTDNSVVLSRK | ≥ 25 | ≥ 25 | ≥ 25 | IC50 (HLA-A*03:01 [4]): 0.786 µM |
| HTLWKAGILY |  | ≥ 25 |  |  |
| IPIPSSWAF |  |  |  | IC50 (HLA-B*35:01): 0.0026 µM; IC50 (HLA-B*51:01 [5]): 0.22 µM |
| KVGNFTGLY | ≥ 25 | ≥ 25 | ≥ 25 |  |
| MMWYWGPSLY | ≥ 25 | ≥ 25 | ≥ 25 |  |
| PVNRPIDWK |  | ≥ 25 | ≥ 25 |  |
| RVTGGVFLVDK | ≥ 25 | ≥ 25 | ≥ 25 | IC50 (HLA-A*03:01 [4]): 0.579 µM |
| TLWKAGILY | ≥ 25 |  | ≥ 25 |  |
| TPARVTGGVF |  |  |  | Kd (HLA-B*51:01 [1]): ≥ 25 µM |
| VTGGVFLVDK |  | ≥ 25 |  |  |
| VVDFSQFSR |  |  |  | IC50 (HLA-A*68:01 [6]): 0.32 µM |
| YMDDVVLGA |  |  |  | Kd (HLA-A*02:03): 4.17 µM; Kd (HLA-A*02:06): ≥ 25 µM |
| YMDDVVLGAK | ≥ 25 | ≥ 25 | ≥ 25 |  |
| YPALMPLYA |  |  |  | IC50 (HLA-B*35:01): 0.15 µM; IC50 (HLA-B*51:01 [5]): 0.162 µM; IC50 (HLA-B*53:01): 0.664 µM |
